Test: label from the status in PepcDB records
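Note: failed if final PepcDB status was selected cloned or expressed and not failed if soluble or beyond.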

Row | Sequence | protein production
1 | MLITLPYFLTRKTLPGYIIGGDTLVHAAIARGIYLGRNPFLDQTYNVYPSWYPFLYHLIVAVTSKVFQISIEGAMLLLQATLAILGCIVFFYVAKNLWGSTAGIMAMAFSLMFLPFHRYPNPKELIPIFGALFILYFVKERWVLSGIILGLGLWSHYASMFPLFVLPLTVYIFTRRKEVITPLLISTIVFLPFAINIISHADHIIPKVEDIYAFWKTDTLEKKLLSLLPPIYLVPFLLLSLYKFYKRRDYEGTVLFLSVVTIWGLRLLPESLKPFGIQIWSTRFTVPLPTIYLLLSAYGISEIKITSKDIKTIFLGILLFLIPIASALNFWEAIKRDPFIWVSEFELKEYFPEEHFIEVSEWIKANTERDNLIATSEEAGMMINALTGRPIMATLYGHGNTFLDNEIRRKDLELLFTADCKEKAKIISKYKIKYIVLDTFVYKRWEVKDMSCIAEPVYKVENVTILRVNLNITYTNKGEIRMNKKLFWLLLIAFVVNFSVIYGRKNPCWRKWRRYDNSHGHD | failed
2 | MDLELDEYYNKTLATENNTAATRNSDFPVWDDYKSSVDDLQYFLIGLYTFVSLLGFMGNLLILMALMKKRNQKTTVNFLIGNLAFSDILVVLFCSPFTLTSVLLDQWMFGKVMCHIMPFLQCVSVLVSTLILISIAIVRYHMIKHPISNNLTANHGYFLIATVWTLGFAICSPLPVFHSLVELQETFGSALLSSRYLCVESWPSDSYRIAFTISLLLVQYILPLVCLTVSHTSVCRSISCGLSNKENRLEENEMINLTLHPSKKSGPQVKLSGSHKWSYSFIKKHRRRYSKKTACVLPAPERPSQENHSRILPENFGSVRSQLSSSSKFIPGVPTCFEIKPEENSDVHELRVKRSVTRIKKRSRSVFYRLTILILVFAVSWMPLHLFHVVTDFNDNLISNRHFKLVYCICHLLGMMSCCLNPILYGFLNNGIKADLVSLIHCLHM | failed
3 | MFLRIDRLQIELPMPKEQDPNAAAAVQALLGGRFGEMSTLMNYMYQSFNFRGKKALKPYYDLIANIATEELGHIELVAATINSLLAKNPGKDLEEGVDPESAPLGFAKDVRNAAHFIAGGANSLVMGAMGEHWNGEYVFTSGNLILDLLHNFFLEVAARTHKLRVYEMTDNPVAREMIGYLLVRGGVHAAAYGKALESLTGVEMTKMLPIPKIDNSKIPEAKKYMDLGFHRNLYRFSPEDYRDLGLIWKGASPEDGTEVVVVDGPPTGGPVFDAGHDAAEFAPEFHPGELYEIAKKLYEKAK | not failed
4 | REIADNTYIVLGTMTLNDFNEYFETDLESDNVDTIAGFYLTGVGTIPSQEEKEHFEVESNGKHLELINDKVKDGRVTKLKILVSEVEEKEDEKD | not failed
5 | MEGLIPFLYKAIVMYKREGSFSSVLLSDHHSPSNAGYYMRLPGDSSSRFRTSDLRRFGTDRFGMLETTPSSSPSRVSTRNITKRT | failed
6 | MKKLVLTGAAGRLGSYLREPLTALCDTLVSTDIVDDIGTLYAGETYVKADLAQMDQIAPVLEGADMVVHFGAIVDEKPFEELLGPNFVGSYNIWEAGYKAGVKRIVYASSIHAVGMHLKSDFIGIDAEHRPDTFYGLAKCFTEDLGRMYWDKRGLESVHLRILSCAQVNNTRALGSWLSYPDLIQLVTRAIDTPSVGFSIIYGVSNNDRAPVDNAKASFLGYRPIDNAEVYAAEVLAQAEPVDTTDPGQMCHGGPFAKVDLGQSGLAQMNVVNDKKQT | failed
7 | MWCGRNAPPRRIRRHTASKSASTAAKGGVRRACPGIVSITRPFDRTRYGSQIPPMPAISIIARTRRKDDHGRVPIRLRISHRGEKRFIALPVKVLAKKWNGDKRRVTGTHPDAGEINTFLSDLERAAFSVISRLERAGTLITAQRIKDEIQEEREEVKSAPEDFLAFAREKVKGYKRRGQIGTFRSYRTTCRKFTAFIEETYGRDEVPFGALEAELFREFRTYCYEERGNSTNTVGRELGIMRTLVRHAMKEGKLSAYPFEHITIDSEPSQKELLTPEEVERIADLEIDEESPAAEARRWFLFAYYAGGMRFSDVATLQWQHIREGRSGRPRVCYKMKKTADTVGVPLIPEAKEILCRYEEGDGEDWVFPISEGIDPGNEEALHRRKCQRNSAANRHLKELAGQAGIEKRVTFHLSRNAAAWKLYQNVGDIYKVSKFLGHSNVEQTQDYIDGFVDESRDEDFIAAMT | failed
8 | MDLVLDLLATVSRWSRSNLSEISLALVGCLLVLFGTDVKAWAEQRLGGLAGALRVPFMALMVMIGSGAALIYATPWVVKGLSQFNNYALAPVLLVVLVLIGVVADRRG | failed
9 | MKFSKLADQVWGEEPDDQVRSFVFMSNLDAQETANTMDVSVSVERIHADLCGNTELASELHYTPDEWDEAQGWVKINYPLIDDTASASLDVVLDATFQPLPGQPFEGEALTLIDALLHHAENVAASNPWKRTTFHTAHMHPPGSNADCDYCLVLQRRGYVKAHEEIQQTIPLPSGDWSAGEFTVVDVEGTAFPSALIPSIVELQHRAALDVPHGNLSVAPAQWDEHRLAQQSERILKTGTKLFTVLFAEGSTVAAMSSIAIPPGSNPDIAEQGLTIVHPDFRGRGLGTAVKLAGLSLLSRCHPEIQRVATSNAVDNHAMLAINRSIGATEIARTTLWEKKL | failed
10 | MKIEAASEQHLSVYRRYFRACRDEDFEYYRGLPDDADGWLLKVVQHADGEALPEGWVPCQTWFLLSDDGEIAGAARLREGETAVIQDVIGHIGFEVLPQWRGHGYGRVLLQYVQAMAPAPACGNWVLVCDADSPASVRTIEACGGQRLEDMPQPDGRV | failed
11 | SYRSTQQITDFTKEILVNGEAVTAFDRQGDLPNVVVTPNFEAGVDQVVDQLAMNDSERDTTAIIGKSLAECEALTKALKARGEQVTLIQTENQRLAPGVIVVPSFLAKGLEFDAVIVWNANQENYQREDERQLLYTICSRAMHELTLVAVGSLSPLLARVNHALYTLNEAK | not failed
12 | MSLADTRKIDSVLLIDDDDIVNFLNTTIIRMTHRVEEIQSVTSGNAAINKLNELYAAGRWPSIICIDINMPGINGWELIDLFKQHFQPMKNKSIVCLLSSSLDPRDQAKAEASDWVDYYVSKPLTANALNNLYNKVLNEGHHHHHH | not failed
13 | TPHLVNLNEDPLMSECLLYYIKDGITRVGQADAERRQDIVLSGAHIKEEHCIFRSERSNSGEVIVTLEPCERSETYVNGKRVSQPVQLRSGNRIIMGKNHVFRFNHPEQARAEREKT | not failed
14 | MGKNLKGKELGKGLYQRKDGRYEARIFVRGTGKTFSIYGTNLQHLKKERNAYLANVSPGIAGYDPRISVSKWYEKWMLIYVVHSVKATTLSNYVNGFERVREYIGYMRLIEVRPTHILDMIKGLEEEGYARTTVIQSLSVVRQLFKKAYGGKMIPIDPVADIKLPKEEPGEIPDEKIMQEQEDEKCLSIYDTHRFLESCKNTRYYELFFILLHTGLRIGEALALEWCDLDFKHEKLRVYKTLNRVTKYYDLKGNELPERYSTIQITTPKKSASNRKVPLTDAVIAAFMSWKEKQDRDKEKLGKNWGKPNILLKKYPGLIFTTSSGRSYLPSSAQTECRRIVGIVNKHEIALAEKENRDPNLMDVHPHIFRHTFVTRCIQSGMDAATVKKIAGHSDEKMTNYYTHIEEEHIDDEYELYIQKYGTET | failed
15 | MSTVPISGRSQIMLVQDSEILSSSALQYKQFLSKVKISKNATSTAQVRRVGQKVAAATMLYLKQNGLGDMASQMKWEFNVVEDKAVNAFCMPGGKIVVYTGLLKLVGSDAELATVISHEVSHAVARHSNERISQEYLRQMGGNILGAAVSNKSAALQTVIGQAYGIGSQVLITLPYNRKQEYEADKIGLVFMAMAGYNPNAAITFWQKMAAQGNGRVEFLSTHPSDANRIAAIRQYMPEAMKHYKSKLEHHHHHH | not failed
16 | MTVDEWRLLDVSTAFGSGENSVPDFGESADDDAVVVWLVKGEEAVEKLSEIVFGVNLVLENHLKHGLSEI | failed
17 | MRRLVLAALLAATSLTTAKAGDLLIHGGPIHTGVEAAPTAEAVLIRDDKILFVGPLAAAKAKAAKDVRAIDLKGAAAYPGFVDAHAHLTGIGLRELTLNLDQVKSVAELVAAVKAYAAAHPEGPISGRGWIETHWPEKRFPTKADLDAAAPGRIVVLGRSDGHASVASSAALAKAGITAATVPPPGGDILKGPDGQPDGMLIDHAQALVRNVIPPPNQALKREALRKAGQLYAARGWTGMANMSVMAEDLSLLRDEAAKGNFHIRIDNYMDPSGAEEVLTKGPQTDATGLIRVQGIKLYMDGALGSRGAALLEPYSDADTLGLQLTQPEQGLALMKRAKAAGAQVAMHAIGDRGNRLVLDWFEQSLGAEAKAARWRNEHSQIVADTDVPRFAKLGVIASMQPSHAIGDLFFAPARLGKARLHEGYRWADFLKADVVVAAGSDAPVEVGDPRIEFYAAVYRHSLDGFANADWHLDQAVSRAEALKMLTLAPAYAVFREKELGTLEAGKKADVTAFDRDLMTVEPKAILTAQPVLTVVDGKVVYSR | failed
18 | MDRLNQIQIILVETSLSANIGSAARAMKTMGLSNLRLVRPKNPLDEQATALAAGAKNILDNAQIFNTFDAAIADCQLIIGTSARLRHLQSTLVEPRECGKLIINNTNQHKIALIFGRERIGLTNEELLKCHYHLNVPTNPEYESLNLAMAVQLACYEIRMAWLELQKKPIIQPLTEEKNYPTAAAMAHFFDHTERL | not failed
19 | MKRKISMNKYVVSTILVMISTFFSRIMGFVKIKIFSYYFGANLDADIFNYVFNIPNNLRKILSEGAMTSAFLPEFTHEKNKSHEKAVSFFRTVITFNIISIGLIVLVMIIFAKPIMYFISYYRGENLIFASSVFGYLVLYILLISLSSIFVSVLNSYKIFFIPSFSPIMLSFGIILSIFLFYGRFGIYSAVIGVIFGGFLQFLIPFANCLMIGFAWKPTFYFREKVFLNFLTRWLRMIFGFSISIITQQISFALASTLEIGSVSILSNAVVYYQLPVGIFYISIATVIFPKMAEHAVLGNNIKLNALLVDGIKILLLIFIPVSFLMFIWSDYILNLFLMGGKFSIYDTQKTASVLKCFLLGLLFYSMFGFFQKYYFSIRDAKTPFYLSVLFSILDIAISVFGINYYGLNALALAQSISFMICVIVFYFIILKRGVKIDLIEILFVLLKSIITLFPLYAIYFFFEKFQWDVGFSFKNLYFLMAAGIVSIFVLFICYSVLGINKLFRYIRRDAL | failed
20 | MSNVLIINAMKEFAHSKGALNLTLTNVAADFLRESGHQVKITTVDQGYDIESEIENYLWADTIIYQMPAWWMGEPWILKKYIDEVFTDGHGRLYQSDGRTRSDATKGYGSGGLIQGKTYMLSVTWNAPREAFTDPEQFFHGVGVDGVYLPFHKANQFLGMKPLPTFMCNDVIKQPDIEGDIARYRQHLAENVNS | not failed
21 | MKLEIGYNHPFEIRKERYESDHVCNFSVLYISDLHLTVFSKDICTRLSKCIQELNPTIIILGGDYIDCRNGWDYLSTFFKFLSARKNVFSIAGNHDYFYGIDEIKKLIESNNIHWLENQSAVVNIQEYNILLTGNNETQSSIPADFNILCLHKPVSLDAFKIPYHIAFAGHLHGCQCVFWQNENGLYPGRFFYTFNFLRRQVKNCLYLISKGLGDTLPIRFNCKKDIIFVEIKNNSNKLEHHHHHH | failed
22 | MLVNRIISATVAGLVAVVIGFASSVALIYQTVINLGGDASLASSWILTLGLSMGITSIALSFYYRVPILIAWSTPGAALLIANTQNFNLNEAIAGFMFSALLIFLCGITGWFEKLINKLPFQLASAMLGGILVNFGIDVFNQMNKAPLLVIVMFFTYLVCRQLMPKFTMLFVLIISVVLAWQLKLMTFTAFSWQLSEFTYISPEFNMSAVLGIGIPLFLVTMAAQNLPGIAVLKAHNYKAPVSSILSVTGFVNMLAAPFGGYAINLAAITAAICMTKDVDKDPKKRYWAGISGGGFYILMAISAGYLMQAFASLPNALIYSLAGMALFTTINSSIQQALSDDKMSEAAIITFLVTASNLSLWDISSVLWGLIAGSITLMTQSLLNRSNDKLC | failed
23 | MVFGPGLCIAHRGTIVVNKGARVGENCRIHACTNIGSGRDNIFLAPKIGNGVYIGPGAKIFGSVEIADNIAIGANSVVNRSFYERGISIAGVPAKKISNKGSDGMVIAATKTVSVPVSQETILEHHHHHH | failed
